Reference: article PMC3576024

Columns and labels:
Test in all cases: DTNB colorimetric detection of released CoA, Michaelis-Menten fit
Type in all cases: biochemical, Aedes aegypti
Conditions in all cases: apparent Km; 0.4 mM acetyl-CoA, 50 mM Tris-HCl, 1.0 mg/mL BSA, room temperature
[1] = substrate: NCCc1ccc(O)c(O)c1
[2] = substrate: NCCc1c[nH]c2ccccc12
[3] = substrate: NC[C@H](O)c1ccc(O)cc1
[4] = substrate: NC[C@H](O)c1ccc(O)c(O)c1
[5] = substrate: NCCc1ccc(O)cc1
[6] = substrate: NCCc1c[nH]c2ccc(O)cc12

B1: aaNAT1 (PaaNAT1) (Aedes aegypti) (protein)
chain: MASKMSTVSSDAKGAIVKPSSTDDSTLPLDEVDTNISIELITEDDAEDVLKLLKKFFFKDEPLNTFVNLGECKELEKYSTKNLHEHCSFKAVNGRGEIVGVNINGLINRPKETDEPPAKLADGCEHPKFKKIMALMDYVDEHFNIFDLYPDVDRMLDVKIMSVDSRYRGLGIAGKLTDRTMQYVKDNNIKLVHVLCSSHFSARVMEKLDFEEVYKLDYSDYLVNGEQVFDPEKPHTAVRILTKRLA
B1 gave a Km [1] of 190 ± 70 µM, a kcat [1] of 7.3 ± 0.742 s⁻¹ and a kcat/Km [1] of 38400 M⁻¹ s⁻¹. It also gave a Km [2] of 160 ± 40 µM, a kcat [2] of 7.34 ± 0.528 s⁻¹ and a kcat/Km [2] of 45900 M⁻¹ s⁻¹. For the same protein, the Km [3] was 140 ± 80 µM, the kcat [3] was 7.26 ± 1.12 s⁻¹ and the kcat/Km [3] was 51900 M⁻¹ s⁻¹. For the same protein, the Km [4] was 160 ± 40 µM, the kcat [4] was 7.76 ± 0.577 s⁻¹ and the kcat/Km [4] was 48500 M⁻¹ s⁻¹. The Km [5] was 170 ± 40 µM, the kcat [5] was 6.77 ± 0.413 s⁻¹ and the kcat/Km [5] was 39800 M⁻¹ s⁻¹. For the same protein, the Km [6] was 230 ± 60 µM, the kcat [6] was 7.54 ± 0.595 s⁻¹ and the kcat/Km [6] was 32800 M⁻¹ s⁻¹.

B2: aaNAT2 (PaaNAT2) (Aedes aegypti) (protein)
chain: MLDSKLNNIRFETISSKYYDDVIEHLRQTFFADEPLNKAVNLTRPGQGHPLLEQHSLSTLKDNVSIMAISNDGDIAGVALNGILYGNTDIEKSREKLNEIQDESFKKIFKLLYEQNLKINLFKQFDVDKIFEIRILSVDSRFRGKGLAKKLIEKSEELALDRGFQVMKTDATGAFSQRVVSSLGFITKCEINYTDYLDENGEQIFVVDPPHEKLKIMCKVIN
Protein B2 has a Km [1] of 130 ± 50 µM, a kcat [1] of 2.56 ± 0.25 s⁻¹ and a kcat/Km [1] of 19700 M⁻¹ s⁻¹. The Km [2] was 170 ± 40 µM, the kcat [2] was 3.05 ± 0.197 s⁻¹ and the kcat/Km [2] was 17900 M⁻¹ s⁻¹. For the same protein, the Km [3] was 270 ± 40 µM, the kcat [3] was 3.65 ± 0.175 s⁻¹ and the kcat/Km [3] was 13500 M⁻¹ s⁻¹. It also gave a Km [4] of 420 ± 60 µM, a kcat [4] of 3.47 ± 0.192 s⁻¹ and a kcat/Km [4] of 8270 M⁻¹ s⁻¹. The Km [5] was 170 ± 30 µM, the kcat [5] was 3.17 ± 0.183 s⁻¹ and the kcat/Km [5] was 18600 M⁻¹ s⁻¹. It also gave a Km [6] of 230 ± 50 µM, a kcat [6] of 3.16 ± 0.198 s⁻¹ and a kcat/Km [6] of 13800 M⁻¹ s⁻¹.
